One assay has as its target T1, GFP-Bak (UniProt Q16611 1-211).
T1 construct: also called pEGFP-Bak; not shown: EGFP from a pEGFP vector
T1 sequence (looked up): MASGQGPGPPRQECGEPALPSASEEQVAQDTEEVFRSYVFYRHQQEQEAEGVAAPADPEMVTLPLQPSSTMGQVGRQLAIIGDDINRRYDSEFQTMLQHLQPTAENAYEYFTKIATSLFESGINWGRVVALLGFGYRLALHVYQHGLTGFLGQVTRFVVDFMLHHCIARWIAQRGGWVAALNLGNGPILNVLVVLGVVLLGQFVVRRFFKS
The experiment in a line: co-immunoprecipitation from transfected 293T cell lysates, immunoblot. On the technique in general: In western blotting, separated proteins are transferred to a membrane and probed.

For the next assay, the target named is T2, Bax (UniProt Q07812 1-192, limits assumed).
T2 construct: also called pcDNA3-Bax
T2 sequence (Q07812 whole entry): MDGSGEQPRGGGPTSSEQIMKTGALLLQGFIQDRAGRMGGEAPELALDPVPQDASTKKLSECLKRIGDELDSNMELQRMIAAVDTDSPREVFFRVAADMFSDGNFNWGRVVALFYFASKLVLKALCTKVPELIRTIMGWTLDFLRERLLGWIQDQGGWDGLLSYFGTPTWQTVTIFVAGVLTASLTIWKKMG
The assay can be described thus: co-immunoprecipitation with anti-Myc beads from HEK293T lysates, anti-Bax immunoblot (FIG. 4A). The protocol: 293T cells (5×10₆) cultured with 50 uM […]-Val-Ala-Asp-fluoromethylketone (ZVAD-fmk, Bachem) were co-transfected with 1.5 ug of pcDNA3-Myc-Bcl-B, pcl-Neo-Flag-Bcl-B, pcDNA3-hCBP (Human Calcyclin Binding Protein) (used as a control), or pcDNA3-Flag-BCI-XL, together with 1.5 ug of pEGFP, pEGFP-Bcl-B, pcDNA3-HA-BAG1, pcDNA3-HA-Bax, pcDNA3-Flag-Bcl-XL, pRC-CMV-Bcl-2 or pEGFP-Bak. At 24 hrs post-transfection, cells were collected and resuspended in lysis buffer (142.4 mM KCI, 5 mM MgCl₂, 10 MM HEPES (pH 7.4), 0.5 mM EGTA, 0.2% NP-40) containing 12.5 mM p-glycerophosphate, 2 mM NaF, 1 mM Na₃VO₄, 1 mM DTT, 1 mM PMSF and a protease inhibitor mixture (Boehringer Mannheim). Soluble lysates were incubated with 10 ul anti-Myc (Santa Cruz) or anti-Flag (Sigma) antibody conjugated Sepharose beads overnight at 4° C. Beads were washed four times in 1.5 ml lysis buffer, and boiled in Laemmli gel-loading solution before performing SDS-PAGE/immunoblotting. The following polyclonal or monoclonal antibodies were used: polyclonal rabbit anti-GFP (Roche), monoclonal rat anti-HA (Roche), monoclonal mouse anti-Flag (Sigma), monoclonal mouse anti-Myc (Santa Cruz), rabbit anti-huBcl—2, or rabbit anti-huBcl-XL (Krajewski, et al., Am. J. Pathol. 145, 515-525 (1994); Krajewski et al., Cancer Res. 54, 5501-5507 (1994)).
Binding studies confirmed that binding between Bcl-B and Bax mediates suppression of apoptosis by Bax. In brief, HEK293T cells were transiently transfected with several Myc-tagged constructs (human calcyclin-binding protein, wildtype Bcl-B, L86A, R96Q, FFR(169-171)AAA, Δ118-133) and cell lysates were prepared and immunoprecipitated with anti-Myc antibody conjugated to beads. Immunoprecipitates were subjected to SDS-PAGE/immunoblot analysis using rabbit polyclonal antibodies specific for Bax (FIG. 4A). To confirm expression of proteins, lysates were subject to immunoblot analysis using antibodies specific for Bax and Myc.

Numbering of substitutions follows the chain as printed.

B1: Myc-Bcl-B (other, not shown: small tags and cut ends)
chain: MVDQLRERTTMADPLRERTELLLADYLGYCAREPGTPEPAPSTPEAAVLRSAAARLRQIHRSFFSAYLGYPGNRFELVALMADSVLSDSPGPTWGRVVTLVTFAGTLLERGPLVTARWKKWGFQPRLKEQEGDVARDCQRLVALLSSRLMGQHRAWLQAQGGWDGFCHFFRTPFPLAFWRKQLVQAFLSCLLTTAFIYLWTRLL
notes: Expressed in 293T cells and immunoprecipitated from lysates; also called wildtype Bcl-B; pcDNA3-Myc-Bcl-B
Regarding B1, the binding result in the assay with GFP-Bak was “no binding”.

B2: Myc-Bcl-B R96Q (other, not shown: small tags and cut ends)
chain: B1 chain with R96Q
notes: Myc-tagged Bcl-B point mutant
Consider B2, for which the binding result with Bax is “no binding”.

B3: Myc-Bcl-B L86A (other, not shown: small tags and cut ends)
chain: B1 chain with L86A
notes: Myc-tagged Bcl-B point mutant
B3: the binding result in the assay with Bax is recorded as “no binding”.

B4: Myc-Bcl-B deletion 118-133 (other, not shown: small tags and cut ends)
chain: MVDQLRERTTMADPLRERTELLLADYLGYCAREPGTPEPAPSTPEAAVLRSAAARLRQIHRSFFSAYLGYPGNRFELVALMADSVLSDSPGPTWGRVVTLVTFAGTLLERGPLVTARVARDCQRLVALLSSRLMGQHRAWLQAQGGWDGFCHFFRTPFPLAFWRKQLVQAFLSCLLTTAFIYLWTRLL
notes: also called (delta)118-133
In the case of B4, the binding result with Bax is given as “no binding”.

For the origin of these results see patent US20030176671A1 (SANFORD BURNHAM MEDICAL RESEARCH INSTITUTE, published 2003).
